Source: PMC5345815

Target: recombinant gp41 of HIV-1 (ectodomain, amino acids 533-684, from clone pNL4-3), secreted from 293 cells (HIV-1 (infectious molecular clone pNL4-3))
Assay: native gel or EMSA; Novex Native PAGE 4-20% Tris-Glycine gradient gel of purified gp41, Western blot with 2F5; single band below the 170 kDa marker

“recombinant gp41 of HIV-1 (ectodomain, amino acids 533-684, from clone pNL4-3), secreted from 293 cells (domain or fragment)” gave a stoichiometry N of 3.
